According to article PMC6149950, “Designability of Aromatic Interaction Networks at E. coli Bacterioferritin B-Type Channels” (Molecules : A Journal of Synthetic Chemistry and Natural …, 2017):

B1: bacterioferritin from E. coli (BFR) double mutant D132W/N34W (natural protein)
chain: not shown
notes: bacterioferritin (BFR), E. coli, with D132W and N34W; made by site-directed mutagenesis of wild-type BFR in pET32 Ek/LIC
B2: bacterioferritin from E. coli (BFR) mutant N34W (natural protein)
chain: not shown
notes: bacterioferritin (BFR), E. coli, with N34W; made by site-directed mutagenesis of wild-type BFR in pET32 Ek/LIC

Target: the molecule itself
Assay: SEC; Superdex 200 10/300 GL, 50 mM NaH2PO4, 150 mM NaCl, pH 7.0, 4 °C, 0.5 mL/min; column calibrated with six standard proteins; self-assembly of dimers into the 24-mer cage

Protein | stoichiometry N
B1 | 2
B2 | 2
